The series can be described thus: soluble fraction after stress (log2 fold change); higher = more stays soluble; pooled small domains, quantitative proteomics. To be noted: stress: pH 4. Summed up: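 Aggregation propensity here comes from the fold change in the soluble amount of each small protein domain after acid stress, measured in pooled custom libraries by high-throughput quantitative proteomics. The acid stress was pH 4. On the log2 scale, higher values mean more of the domain stayed soluble.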
In the case of “HMNFEIEVTENGKRIDSYLAEELDLSRSKVQKLIKQELVTVNGKVVSNNYNVKLGDTILVNDD”, the “soluble fraction (log2)” value turned out to be 0.154. In the case of “HMNFFQEIGNSILIELNKKNWTQSMFAHKIGVSDEVFKQIVQGKKALNAVEIAKIANTLDVDPEKLLRK”, the “soluble fraction (log2)” value was -0.0391. As for “HMNFTEAEQRFHFLEDQRQRGVLSLEQYRAELAQLRVTDAWGRLWMLQEQTGQWFVFHEGQWRPSQ”, the “soluble fraction (log2)” value is -0.266. Consider “HMNGEDVTDAIRLPQISQYASVVSAYPGVRAFLLEMQRDFARKGSVIMDGRDIGTVVLPEAEVKIFLT”, for which the “soluble fraction (log2)” value was 0.278. With “HMNGGPHYLRDVRTSLGLSQADLAKAVGTSANMIHYLESGERALTLKWIRRISEALNVSPMRLIN”, the “soluble fraction (log2)” value is -0.0552.

As for “HMNGLPDLSRYTGVSIVDGLASVGSDSSFAYRAKIAETLGISDYKGSAGQNLEMIRKLGGKV”, the “soluble fraction (log2)” value is -0.172. With “HMNGTGSVYKLSGKRRNPWRAVVTNGWAYNEEKGKLVQNRVTIGYYHTRDEAIQAIANYNSSP”, the “soluble fraction (log2)” value is -0.125.

Turning to “HMNGVFIMHTPDGKVLRTEEGEEAVITLFNWSGQLLWSKTSLGQLPLPEGTQGVLQVQYKSGDQHTIKT”, the “soluble fraction (log2)” value is -0.425. Take “HMNHAPSLMRKIRRGLKEGRNPDDLLVNAKSISDYYYRSLSFYLLAPHFSSKSKQYKQVISLANS”: the “soluble fraction (log2)” value was -0.151. Under “HMNHHTEQQLKALSNKVKDHRMRMRLLAVAHFKAGKNKADVARTLNVSRRMVNEWVANYFKGGVSALES” stands -0.047; under “HMNHLLYPNPANNFIWIKNSTSNTAVIYNLQGVMSKVEVSEEGKIDISRFSPGLYMIKQGERIYKFTIA”, -0.358; under “HMNHLSYEQRLKIKEMLDGGFKKIDIARALGVHNATIYREIERGSVNGIYNPNKSEEQYRDHLSEK”, 0.0704. As for “HMNHYIGVDRAKEIALNHANLSETDVVFTKEKLENDDGGAEYEIEFHSGRTEYDYTIDAASGNIIEYDVDY”, the “soluble fraction (log2)” value was -0.17. Regarding “HMNIDGLIGKKALVTADIDNVNSKGQIKINGLEWTARSVDDEPIPMGTEVEITAISGVKAIVRKG”, the “soluble fraction (log2)” value stood at 0.309. For the sequence “HMNIEANLEDILRRAMPSAAKLILENSLNINKIIGTGKEGRITKGDVLLYLKDKNLILENILN”, the “soluble fraction (log2)” value was 0.0861. For the sequence “HMNIEEAESILKEIKTVLTDKEYEVYTLRAKGFTYQEIASLLNTTTKSVDGALSRIKTKINNIK”, the “soluble fraction (log2)” value came to 0.0204. As to “HMNIFKLYEENIGPLTPMIADILKEDEAEFPDYWIREAIEIAVKKNARNWKYVHAVLESWQKE”, the “soluble fraction (log2)” value was -0.259. With “HMNILKAPMPGLILDVIVKESDLVKKGDPVIILEAMKMENILSSPVDGIVKEIKVNPQQTVEKNNTLIKFE” the figure was -0.469; with “HMNILNFSENIIKLRHKKGITQEELADFVGVTKASVSKWETKQSLPDIMLLPRLAAYFDVTVDELLGYEP”, -0.115; with “HMNINHEINIKSKKKISILENNPNLSQFYLTKNPDQYNYNLVFSDKSELNKLKEKLESDNEVEDIDIRYG”, -0.195. As to “HMNINTEMEKVSYSLGVNIASSLKQQGWELDAKSLSDAFVDVFNGNKLLIDEKEASSILQNYQQKIANK”, the “soluble fraction (log2)” value was -1.1.

Consider “HMNIQKYFAGREQFIELLEAVGIRTLEQFASADPSTVLPELHQAKRMLKLQTEIPSAPVFREWVNQALS”, for which the “soluble fraction (log2)” value was -0.901.

With “HMNIQPAMLNAANGGVAWKERGISMSQIMKRNAHTAEGSQKLWDYAFENFFQKNIDAGNIRDDR”, the “soluble fraction (log2)” value is -0.237. Under “HMNIVKGDTTANVRVVQQRLYNLGYYTYKVDGIWGTRTKTAVKKFQKDKGLVADGIVGAKTEKALGITLT” stands -0.252; under “HMNIVVSSIDSNSFEIVNKETGEQAVISYDKETKKGFVLINGVKKEFFQDGNKVYYDGYVIAE”, -0.466; under “HMNKDEFLNELKSYLSILEDEEQADILEEYTQHIDMKISTGLSEAEAIRDFGNVSELAAQILEAY”, -0.343. Regarding “HMNKIGTIVSINGPIVKTAGDVGFVMHEMVYVGKEKLVGEVIGLTTDFTIVEVYEETSGIKPGETIEGT”, the “soluble fraction (log2)” value came to 0.00293. On to “HMNKKEIISVLEKIIPPSQIKNINIFGSELVIDLNIDNPSLHAKKKLEKSIMSSFDENLKIIVNFSVE”, for which the “soluble fraction (log2)” value is 0.22.

Source of the values: the domain aggregation screens of Martell et al. (2025).
